B1: 7B16-H2.001 (CDR H2 swapped mutant of 7-B16) (antibody, V domains shown)
VH: EVQLVESGGGLVQPKGSLKLSCAASGFTFNTYAMNWVRQAPGKGLEWVARIRSKANSYATAYAASVKDRFTISRDDSQSMLYLQMNNLKTEDTAMYYCVRGLLRYRFFDVWGAGTTVTVSS
VL: DIVMTQAEPSVPVTPGESISISCRSSKSLLHSNGNTYLYWFLQRPGQSPQLLIYRMSNLASGVPDRFSGSGSGTAFTLRISRVEAEDVGVYYCMQHLEYPFTFGGGTKLEIKR
notes: also called CDR swapped variant H2
B2: Humanized 7-B16.001 (antibody, human IgG1, kappa, V domains shown)
VH: EVQLVESGGGLVQPGGSLKLSCAASGFTFNTYAMNWVRQASGKGLEWVGRIRSKSNNYATYYADSVKDRFTISRDDSKNTAYLQMNSLKTEDTAVYYCVRGLLRYRFFDVWGQGTTVTVSS
VL: DIVMTQSPLSLPVTPGEPASISCRSSKSLLHSNGNTYLYWFLQKPGQSPQLLIYRMSNLASGVPDRFSGSGSGTDFTLKISRVEAEDVGVYYCMQHLEYPFTFGGGTKVEIKR
notes: Humanized
B3: 7B16.008 (CDR H3 alanine scan variant of 7-B16) (antibody, human IgG1, kappa, V domains shown)
VH: EVQLVESGGGLVQPKGSLKLSCAASGFTFNTYAMNWVRQAPGKGLEWVARIRSKSNNYATYYADSVKDRFTISRDDSQSMLYLQMNNLKTEDTAMYYCVRGLLRARFFDVWGAGTTVTVSS
VL: DIVMTQAEPSVPVTPGESISISCRSSKSLLHSNGNTYLYWFLQRPGQSPQLLIYRMSNLASGVPDRFSGSGSGTAFTLRISRVEAEDVGVYYCMQHLEYPFTFGGGTKLEIKR
B4: 7B16-H3C3.001 (CDR H3 combo mutant of 7-B16) (antibody, V domains shown)
VH: EVQLVESGGGLVQPKGSLKLSCAASGFTFNTYAMNWVRQAPGKGLEWVARIRSKSNNYATYYADSVKDRFTISRDDSQSMLYLQMNNLKTEDTAMYYCVRGLLRARFFDAWGAGTTVTVSS
VL: DIVMTQAEPSVPVTPGESISISCRSSKSLLHSNGNTYLYWFLQRPGQSPQLLIYRMSNLASGVPDRFSGSGSGTAFTLRISRVEAEDVGVYYCMQHLEYPFTFGGGTKLEIKR
B5: 7B16.010 (CDR H3 alanine scan variant of 7-B16) (antibody, human IgG1, kappa, V domains shown)
VH: EVQLVESGGGLVQPKGSLKLSCAASGFTFNTYAMNWVRQAPGKGLEWVARIRSKSNNYATYYADSVKDRFTISRDDSQSMLYLQMNNLKTEDTAMYYCVRGLLRYRAFDVWGAGTTVTVSS
VL: DIVMTQAEPSVPVTPGESISISCRSSKSLLHSNGNTYLYWFLQRPGQSPQLLIYRMSNLASGVPDRFSGSGSGTAFTLRISRVEAEDVGVYYCMQHLEYPFTFGGGTKLEIKR
B6: 7B16.002 (CDR H3 alanine scan variant of 7-B16) (antibody, human IgG1, kappa, V domains shown)
VH: EVQLVESGGGLVQPKGSLKLSCAASGFTFNTYAMNWVRQAPGKGLEWVARIRSKSNNYATYYADSVKDRFTISRDDSQSMLYLQMNNLKTEDTAMYYCARGLLRYRFFDVWGAGTTVTVSS
VL: DIVMTQAEPSVPVTPGESISISCRSSKSLLHSNGNTYLYWFLQRPGQSPQLLIYRMSNLASGVPDRFSGSGSGTAFTLRISRVEAEDVGVYYCMQHLEYPFTFGGGTKLEIKR
B7: Humanized 7-B16.033 (antibody, human IgG1, kappa, V domains shown)
VH: EVQLVESGGGLVQPGRSLRLSCTASGFTFATYAMNWVRQAPGKGLEWVARIRSKSNNYATYYADSVKDRFTISRDDSKSILYLQMNSLKTEDTAVYYCVRGLLRYRFFDVWGQGTTVTVSS
VL: DIVMTQSPLSLPVTPGEPASISCRSSKSLLHSNGNTYLYWFLQKPGQSPQLLIYRMSNLASGVPDRFSGSGSGTDFTLKISRVEAEDVGVYYCMQHLEYPFTFGGGTKVEIKR
notes: Humanized
B8: 7B16.005 (CDR H3 alanine scan variant of 7-B16) (antibody, human IgG1, kappa, V domains shown)
VH: EVQLVESGGGLVQPKGSLKLSCAASGFTFNTYAMNWVRQAPGKGLEWVARIRSKSNNYATYYADSVKDRFTISRDDSQSMLYLQMNNLKTEDTAMYYCVRGALRYRFFDVWGAGTTVTVSS
VL: DIVMTQAEPSVPVTPGESISISCRSSKSLLHSNGNTYLYWFLQRPGQSPQLLIYRMSNLASGVPDRFSGSGSGTAFTLRISRVEAEDVGVYYCMQHLEYPFTFGGGTKLEIKR
B9: 7B16-H3C1.001 (CDR H3 combo mutant of 7-B16) (antibody, V domains shown)
VH: EVQLVESGGGLVQPKGSLKLSCAASGFTFNTYAMNWVRQAPGKGLEWVARIRSKSNNYATYYADSVKDRFTISRDDSQSMLYLQMNNLKTEDTAMYYCARGLLRARFFDVWGAGTTVTVSS
VL: DIVMTQAEPSVPVTPGESISISCRSSKSLLHSNGNTYLYWFLQRPGQSPQLLIYRMSNLASGVPDRFSGSGSGTAFTLRISRVEAEDVGVYYCMQHLEYPFTFGGGTKLEIKR
B10: 7B16.013 (CDR H3 alanine scan variant of 7-B16) (antibody, human IgG1, kappa, V domains shown)
VH: EVQLVESGGGLVQPKGSLKLSCAASGFTFNTYAMNWVRQAPGKGLEWVARIRSKSNNYATYYADSVKDRFTISRDDSQSMLYLQMNNLKTEDTAMYYCVRGLLRYRFFDAWGAGTTVTVSS
VL: DIVMTQAEPSVPVTPGESISISCRSSKSLLHSNGNTYLYWFLQRPGQSPQLLIYRMSNLASGVPDRFSGSGSGTAFTLRISRVEAEDVGVYYCMQHLEYPFTFGGGTKLEIKR
B11: 7B16.009 (CDR H3 alanine scan variant of 7-B16) (antibody, human IgG1, kappa, V domains shown)
VH: EVQLVESGGGLVQPKGSLKLSCAASGFTFNTYAMNWVRQAPGKGLEWVARIRSKSNNYATYYADSVKDRFTISRDDSQSMLYLQMNNLKTEDTAMYYCVRGLLRYAFFDVWGAGTTVTVSS
VL: DIVMTQAEPSVPVTPGESISISCRSSKSLLHSNGNTYLYWFLQRPGQSPQLLIYRMSNLASGVPDRFSGSGSGTAFTLRISRVEAEDVGVYYCMQHLEYPFTFGGGTKLEIKR
B12: 7B16-H3C2.001 (CDR H3 combo mutant of 7-B16) (antibody, V domains shown)
VH: EVQLVESGGGLVQPKGSLKLSCAASGFTFNTYAMNWVRQAPGKGLEWVARIRSKSNNYATYYADSVKDRFTISRDDSQSMLYLQMNNLKTEDTAMYYCARGLLRYRFFDAWGAGTTVTVSS
VL: DIVMTQAEPSVPVTPGESISISCRSSKSLLHSNGNTYLYWFLQRPGQSPQLLIYRMSNLASGVPDRFSGSGSGTAFTLRISRVEAEDVGVYYCMQHLEYPFTFGGGTKLEIKR
B13: 7B16.004 (CDR H3 alanine scan variant of 7-B16) (antibody, human IgG1, kappa, V domains shown)
VH: EVQLVESGGGLVQPKGSLKLSCAASGFTFNTYAMNWVRQAPGKGLEWVARIRSKSNNYATYYADSVKDRFTISRDDSQSMLYLQMNNLKTEDTAMYYCVRALLRYRFFDVWGAGTTVTVSS
VL: DIVMTQAEPSVPVTPGESISISCRSSKSLLHSNGNTYLYWFLQRPGQSPQLLIYRMSNLASGVPDRFSGSGSGTAFTLRISRVEAEDVGVYYCMQHLEYPFTFGGGTKLEIKR
B14: 7B16.006 (CDR H3 alanine scan variant of 7-B16) (antibody, human IgG1, kappa, V domains shown)
VH: EVQLVESGGGLVQPKGSLKLSCAASGFTFNTYAMNWVRQAPGKGLEWVARIRSKSNNYATYYADSVKDRFTISRDDSQSMLYLQMNNLKTEDTAMYYCVRGLARYRFFDVWGAGTTVTVSS
VL: DIVMTQAEPSVPVTPGESISISCRSSKSLLHSNGNTYLYWFLQRPGQSPQLLIYRMSNLASGVPDRFSGSGSGTAFTLRISRVEAEDVGVYYCMQHLEYPFTFGGGTKLEIKR
B15: Humanized 1-K17.015 (antibody, human IgG1, kappa, V domains shown)
VH: EVQLVQSGAEVKKPGASVKVSCKASGYTFTSYNMHWVRQAPGQRLEWIGAIYPGQGDTSYNQKFKGRATLTADKSASTAYMELSSLRSEDTAVYYCARKGGTPFAYWGQGTLVTVSS
VL: DVVMTQSPLSLPVTLGQPASISCRSSQSLVHSNAQTYLYWYQQRPGQSPRLLIYKVSNRFSGVPDRFSGSGSGTDFTLKISRVEAEDVGVYFCSQSTHVPYTFGQGTKLEIKR
notes: Humanized with hotspot correction
B16: Humanized 1-K17.044 (antibody, human IgG1, kappa, V domains shown)
VH: EVQLVQSGAEVKKPGASVKVSCKASGYTFTSYNMHWVRQAPGQGLEWIGAIYPGAGDTSYNQKFKGRATLTADKSTSTAYMELSSLRSEDTAVYYCARKGGTPFAYWGQGTLVTVSS
VL: DVVMTQSPLSLPVTLGQPASISCRSSQSLVHSNAATYLYWYQQRPGQSPRLLIYKVSNRFSGVPDRFSGSGSGTDFTLKISRVEAEDVGVYFCSQSTHVPYTFGQGTKLEIKR
notes: as for B15

Legend:
[1] = target: T1, CCR8-NT.MBP (CCR8 N-terminus peptide aa 1-35 fused with maltose binding protein); assay: ForteBio Octet, antibody captured on AHC biosensors, CCR8-NT.MBP as analyte
[2] = target: T2, Human CCR4 expressed on CHO-S cells (human, UniProt P51679 1-360); assay: flow cytometry
T2 construct: whole, on cells; also called CCR4-expressing CHO-S cells
T2 sequence (looked up): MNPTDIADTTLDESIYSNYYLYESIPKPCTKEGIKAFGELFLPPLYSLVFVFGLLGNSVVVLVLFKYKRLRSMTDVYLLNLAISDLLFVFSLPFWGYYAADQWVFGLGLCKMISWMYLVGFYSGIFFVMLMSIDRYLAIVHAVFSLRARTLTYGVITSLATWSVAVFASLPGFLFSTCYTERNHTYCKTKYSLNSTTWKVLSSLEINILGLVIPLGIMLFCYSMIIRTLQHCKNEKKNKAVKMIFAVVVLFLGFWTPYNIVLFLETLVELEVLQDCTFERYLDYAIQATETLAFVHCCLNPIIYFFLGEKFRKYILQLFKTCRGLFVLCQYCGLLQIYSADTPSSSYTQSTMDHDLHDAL

[3] = target: T3, Human CCR8 (C-C chemokine receptor type 8) expressed on CHO-S cells (human, UniProt P51685 1-355); assay: KinExA, on-cell affinity
T3 construct: also called huCCR8; human CCR8-expressing CHO-S cells
T3 sequence (P51685 whole entry): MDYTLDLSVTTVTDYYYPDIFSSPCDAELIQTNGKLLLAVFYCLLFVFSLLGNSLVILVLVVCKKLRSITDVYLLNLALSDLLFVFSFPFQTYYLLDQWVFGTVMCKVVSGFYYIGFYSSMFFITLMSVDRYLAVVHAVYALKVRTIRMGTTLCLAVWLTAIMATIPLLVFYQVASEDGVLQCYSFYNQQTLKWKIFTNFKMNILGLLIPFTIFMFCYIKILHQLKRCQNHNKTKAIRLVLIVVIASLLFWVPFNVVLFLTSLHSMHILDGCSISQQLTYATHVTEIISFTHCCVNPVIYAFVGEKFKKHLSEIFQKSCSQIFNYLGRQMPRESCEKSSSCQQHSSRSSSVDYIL

[4] = target: T3, Human CCR8 (C-C chemokine receptor type …); assay: cell-based or functional assay
[5] = target: T3, Human CCR8 (C-C chemokine receptor type …); assay: flow cytometry, human CCR8-overexpressing against parental CHO-S cells
Description: The first category of variant (single substitution mutation in the CDR H3) included variants in which each amino acid residue of the heavy chain CDR 3 (i.e., , CDR H3) was iteratively substituted with an alanine residue.
CCR8 binding was determined using flow cytometry according to the same methods used in Example 4, Briefly, antibodies were screened for specific binding to human CCR8 by flow cytometry using human CCR8-overexpressing and parental CHO—S cell line. Antibodies specifically binding to human CCR8 were also tested for binding to CCR4 by flow cytometry.

[6] = target: T1, CCR8-NT.MBP (CCR8 N-terminus peptide aa …); assay: ForteBio Octet, antibody at 10 µg/ml captured on AHC biosensors, 300 nM CCR8-NT.MBP as analyte
Source text: (amino acids 406-440 of SEQ ID NO: 128), Amino acids 1-364 of SEQ ID NO: 128 represent the maltose binding protein.

Binder | ADCC (Fold Induction) [4] [fold] | Flow (fold over parent) [5] [fold] | Octet (nm shift) [6] [nm] | also measured
B1 | – | – | – | Octet Response (nm) [1]: 0.299 nm
B2 | – | – | – | binding result [2]: no binding; Kd [3]: 0.0159 nM; koff [3]: 7.93e-05 s⁻¹; kon [3]: 4.99e+06 M⁻¹ s⁻¹
B3 | 24.8 | 9 | 0.436 | –
B4 | – | – | – | Octet Response (nm) [1]: 0.376 nm
B5 | 1.36 | 4 | 0.155 | –
B6 | 22.9 | 8 | 0.469 | –
B7 | – | – | – | binding result [2]: no binding; Kd [3]: 0.0746 nM; koff [3]: 0.000391 s⁻¹; kon [3]: 5.25e+06 M⁻¹ s⁻¹
B8 | 20 | 9 | 0.296 | –
B9 | – | – | – | Octet Response (nm) [1]: 0.431 nm
B10 | 25.9 | 9 | 0.383 | –
B11 | 19.8 | 10 | 0.303 | –
B12 | – | – | – | Octet Response (nm) [1]: 0.357 nm
B13 | 19.5 | 6 | 0.221 | –
B14 | 14.1 | 8 | 0.22 | –
B15 | – | – | – | binding result [2]: no binding; Kd [3]: 0.0145 nM; koff [3]: 0.000142 s⁻¹; kon [3]: 9.78e+06 M⁻¹ s⁻¹
B16 | – | – | – | binding result [2]: no binding; Kd [3]: 0.00805 nM; koff [3]: 6.67e-05 s⁻¹; kon [3]: 8.29e+06 M⁻¹ s⁻¹
